Stoichiometry N data for one substance are collected here from article PMC11533990.

This assay has as its target Full-length wild-type (WT) OaPAC, photoactivated adenylate cyclase from Oscillatoria acuminata (Oscillatoria acuminata). The assay is described as follows: crystal structure; serial femtosecond crystallography (SFX) at the European XFEL, room temperature (294 K), microcrystals grown in 0.06 M divalents (MgCl2/CaCl2), 0.1 M Tris-Bicine pH 8.5, 30% PEG 550 MME/PEG 20 000; space group P2(1)2(1)2, one monomer in the asymmetric unit, dimer by crystal symmetry; 1.75 A.

The term stoichiometry N denotes a count of units in the complex or per binding partner. For the substance “Full-length wild-type (WT) OaPAC, photoactivated adenylate cyclase from Oscillatoria acuminata (enzyme)”, the stoichiometry N worked out at 2.
